Results: article PMC10349104
Where “and” joins values, the source holds several entries; their conditions need not be identical. Equal values may be shown once. Read-outs that look alike come from different tables or passages of the source.

Assays:
EVA-4, P0C8E9 = molecular target: T1, EVA-4, P0C8E9; experiment: not stated; Kd of EVA-4 for human chemokines, three readings (source data of Supplementary Fig. 7); method and conditions not told for EVA-4
T1 chain: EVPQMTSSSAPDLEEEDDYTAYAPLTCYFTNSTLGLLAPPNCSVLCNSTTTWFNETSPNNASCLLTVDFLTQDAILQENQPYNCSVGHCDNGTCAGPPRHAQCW

[1] = molecular target: EVA-AAM1001 (Amblyomma americanum); experiment: SPR
[2] = molecular target: EVA-A(DN) (Amblyomma americanum); experiment: SPR
[3] = molecular target: EVA-A(Y44A) (Amblyomma americanum); experiment: SPR
[4] = molecular target: EVA-A(C8) (Amblyomma americanum); experiment: SPR
[5] = molecular target: EVA-A(L39P) (Amblyomma americanum); experiment: SPR
[6] = remark: other sources report otherwise

B1: CCL4, P13236 24-92 (ligand)
chain: APMGSDPPTACCFSYTARKLPRNFVVDYYETSSLCSQPAVVFQTKRSKQVCADPSESWVQEYVYDLELN
Kd (EVA-4, P0C8E9; [6]): 212 nM and 126 nM and 137 nM

B2: CCL15 (ligand)
chain: QFTNDAETELMMSKLPLENPVVLNSFHFAADCCTSYISQSIPCSLMKSYFETSSECSKPGVIFLTKKGRQVCAKPSGPGVQDCMKKLKPYSI
modifications: not checked
Kd (EVA-4, P0C8E9): 287 nM and 216 nM and 218 nM
Kd [1, 6]: 1.7 nM and 1.77 nM and 1.85 nM
koff [1, 6]: 0.000308 s⁻¹ and 0.000311 s⁻¹ and 0.000314 s⁻¹
kon [1, 6]: 182000 M⁻¹ s⁻¹ and 175000 M⁻¹ s⁻¹ and 170000 M⁻¹ s⁻¹
Kd [2, 6]: 35.6 nM and 33.6 nM and 33 nM
koff [2, 6]: 0.00216 s⁻¹ and 0.00209 s⁻¹ and 0.00218 s⁻¹
kon [2, 6]: 60800 M⁻¹ s⁻¹ and 62100 M⁻¹ s⁻¹ and 66000 M⁻¹ s⁻¹
Kd [3, 6]: 80.9 nM and 215 nM and 188 nM
koff [3, 6]: 0.00852 s⁻¹ and 0.0138 s⁻¹ and 0.0129 s⁻¹
kon [3, 6]: 105000 M⁻¹ s⁻¹ and 64300 M⁻¹ s⁻¹ and 68500 M⁻¹ s⁻¹
Kd [4, 6]: 714 nM and 467 nM and 550 nM
koff [4, 6]: 0.0149 s⁻¹ and 0.0104 s⁻¹ and 0.013 s⁻¹
kon [4, 6]: 20800 M⁻¹ s⁻¹ and 22300 M⁻¹ s⁻¹ and 23700 M⁻¹ s⁻¹
Kd [5, 6]: 26.9 nM and 23 nM and 29.8 nM
koff [5, 6]: 0.0026 s⁻¹ and 0.00246 s⁻¹ and 0.00303 s⁻¹
kon [5, 6]: 96500 M⁻¹ s⁻¹ and 107000 M⁻¹ s⁻¹ and 101000 M⁻¹ s⁻¹

B3: CCL14 (ligand)
chain: TKTESSSRGPYHPSECCFTYTTYKIPRQRIMDYYETNSQCSKPGIVFITKRGHSVCTNPSDKWVQDYIKDMKEN
modifications: not checked
Kd (EVA-4, P0C8E9): 0.765 nM and 1.17 nM and 1.14 nM
Kd [1]: 0.0551 nM and 0.0372 nM and 0.0569 nM
koff [1]: 6.24e-05 s⁻¹ and 5.52e-05 s⁻¹ and 6.41e-05 s⁻¹
kon [1]: 1.1e+06 1/(M s) (2×) and 1.5e+06 1/(M s)
Kd [2]: 0.12 nM and 0.109 nM and 0.11 nM
koff [2]: 8.54e-05 s⁻¹ and 7.6e-05 s⁻¹ and 7.69e-05 s⁻¹
kon [2]: 714000 1/(M s) and 697000 1/(M s) (2×)
Kd [3]: 0.12 nM and 0.125 nM and 0.0725 nM
koff [3]: 6.21e-05 s⁻¹ and 5.76e-05 s⁻¹ and 3.35e-05 s⁻¹
kon [3]: 519000 M⁻¹ s⁻¹ and 462000 M⁻¹ s⁻¹
Kd [4]: 1.09 nM and 1.16 nM and 1.66 nM
koff [4]: 0.000525 s⁻¹ and 0.00045 s⁻¹ and 0.000476 s⁻¹
kon [4]: 482000 M⁻¹ s⁻¹ and 389000 M⁻¹ s⁻¹ and 288000 M⁻¹ s⁻¹
Kd [5]: 0.0403 nM and 0.0431 nM and 0.0505 nM
